Results: patent publication US20250076311A1 (Chugai, published 2025)
Numbering of substitutions follows the chain as printed. Numbers in names are those of the source.

Key:
[1] = molecular target: T1, human FcγRIIaR extracellular domain, His-tagged (human, UniProt P12318 34-217); test: SPR (Biacore), 25C, KD of SG1 / KD of variant
T1 construct: also called human FcgRIIaR; FcγRIIa type R
T1 chain: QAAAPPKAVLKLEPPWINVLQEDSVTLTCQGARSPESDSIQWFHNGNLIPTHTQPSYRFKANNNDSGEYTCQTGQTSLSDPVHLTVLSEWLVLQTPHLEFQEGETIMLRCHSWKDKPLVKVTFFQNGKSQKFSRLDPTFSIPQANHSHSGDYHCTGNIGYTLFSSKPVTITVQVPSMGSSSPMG

[2] = molecular target: T2, human FcγRIIaH extracellular domain, His-tagged (human, UniProt P12318 34-217); test: SPR (Biacore), 25C, KD of SG1 / KD of variant
T2 construct: also called human FcgRIIaH; FcγRIIa type H
T2 sequence: T1 chain with R134H

[3] = molecular target: T3, cynomolgus monkey FcγRIIa2 extracellular domain, His-tagged (cynomolgus monkey); test: SPR (Biacore), 25C, KD of SG1 / KD of variant
T3 construct: also called cyno FcgRIIa2
T3 chain: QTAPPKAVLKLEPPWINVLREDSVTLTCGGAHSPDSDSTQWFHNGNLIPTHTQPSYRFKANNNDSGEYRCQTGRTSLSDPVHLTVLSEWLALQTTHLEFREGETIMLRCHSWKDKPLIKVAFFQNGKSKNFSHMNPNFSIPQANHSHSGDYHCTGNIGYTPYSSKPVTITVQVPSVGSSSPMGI

[4] = molecular target: T4, cynomolgus monkey FcγRIIb extracellular domain, His-tagged (cynomolgus monkey); test: SPR (Biacore), 25C, KD of SG1 / KD of variant
T4 construct: also called cyno FcgRIIb
T4 chain: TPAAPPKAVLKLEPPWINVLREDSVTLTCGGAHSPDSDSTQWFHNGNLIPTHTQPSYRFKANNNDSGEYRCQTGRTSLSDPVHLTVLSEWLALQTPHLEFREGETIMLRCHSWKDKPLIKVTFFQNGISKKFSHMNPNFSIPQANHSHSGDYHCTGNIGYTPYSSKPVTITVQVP

[5] = molecular target: T5, human FcγRIIIaV extracellular domain, His-tagged (human, UniProt P08637 17-208); test: SPR (Biacore), 25C, KD of SG1 / KD of variant
T5 construct: also called human FcgRIIIaV
T5 sequence (P08637 17-208 F176V): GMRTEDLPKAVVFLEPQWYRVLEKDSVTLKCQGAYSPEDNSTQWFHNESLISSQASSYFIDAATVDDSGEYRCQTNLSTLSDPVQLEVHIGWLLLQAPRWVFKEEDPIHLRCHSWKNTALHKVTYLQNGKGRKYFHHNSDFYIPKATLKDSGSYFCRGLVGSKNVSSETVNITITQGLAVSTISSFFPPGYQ

[6] = molecular target: T6, human FcγRIIb extracellular domain, His-tagged (human, UniProt P31994 43-217); test: SPR (Biacore), 25C, KD of SG1 / KD of variant
T6 construct: also called human FcgRIIb
T6 sequence: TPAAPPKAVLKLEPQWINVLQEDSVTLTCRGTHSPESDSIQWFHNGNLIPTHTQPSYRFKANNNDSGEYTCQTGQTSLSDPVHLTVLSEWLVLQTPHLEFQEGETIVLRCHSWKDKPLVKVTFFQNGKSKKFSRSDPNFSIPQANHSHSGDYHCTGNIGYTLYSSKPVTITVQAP

[7] = molecular target: T7, cynomolgus monkey FcγRIIIaS extracellular domain, His-tagged (cynomolgus monkey, UniProt Q8SPW2 21-206 at identity 1.00)); test: SPR (Biacore), 25C, KD of SG1 / KD of variant
T7 construct: also called cyno FcgRIIIaS
T7 chain: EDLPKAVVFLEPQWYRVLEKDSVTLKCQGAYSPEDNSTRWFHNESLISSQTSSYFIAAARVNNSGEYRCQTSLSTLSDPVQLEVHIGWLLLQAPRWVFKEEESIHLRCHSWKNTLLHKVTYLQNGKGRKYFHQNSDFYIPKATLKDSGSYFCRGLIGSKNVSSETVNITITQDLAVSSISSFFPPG

[8] = molecular target: T8, cynomolgus monkey FcγRIIa1 extracellular domain, His-tagged (cynomolgus monkey); test: SPR (Biacore), 25C, KD of SG1 / KD of variant
T8 construct: also called cyno FcgRIIa1
T8 chain: T3 chain with T95P, A121T, K127I, S128A, N130K, N135D, Q142R

[9] = molecular target: T9, cynomolgus monkey FcγRIIa3 extracellular domain, His-tagged (cynomolgus monkey); test: SPR (Biacore), 25C, KD of SG1 / KD of variant
T9 construct: also called cyno FcgRIIa3
T9 chain: T3 chain with K127I, N130K, H133P, Q142R

[10] = molecular target: T3, cynomolgus monkey FcγRIIa2 …; test: SPR (Biacore), 25C, FcgR bound per antibody captured
Experimental: (§1) In the next step, cross-reactivity of these substitutions to cynoFcγRs was evaluated.
(§2) The value of the amount of FcγR binding was obtained by dividing the amount of FcγR bound by the amount of each antibody captured.

[11] = molecular target: T4, cynomolgus monkey FcγRIIb extracellular …; test: as above
Experimental: as §1, §2

[12] = molecular target: T7, cynomolgus monkey FcγRIIIaS …; test: as above
Experimental: as §1, §2

[13] = molecular target: T8, cynomolgus monkey FcγRIIa1 …; test: as above
Experimental: as §1, §2

[14] = molecular target: T9, cynomolgus monkey FcγRIIa3 …; test: as above
Experimental: as §1, §2

[15] = molecular target: T1, human FcγRIIaR extracellular domain, …; test: SPR (Biacore), 25C, antibody captured, FcgR as analyte
Experimental: (§3) The kinetic analysis of interactions between these antibodies and FcγR was carried out using BIACORE® T200 or BIACORE® 4000 (GE Healthcare). HBS-EP+ (GE Healthcare) was used as the running buffer, and the measurement temperature was set to 25° C. […] After the measurement, the antibody captured on the chip was washed off by allowing reaction with 10 mM glycine-HCl, pH1.5 and 25 mM NaOH so that the chip was regenerated and used repeatedly. The sensorgrams obtained as measurement results were analyzed by the 1:1 Langmuir binding model using the BIACORE® Evaluation Software to calculate the binding rate constant ka (L/mol/s) and dissociation rate constant kd (1/s), and the dissociation constant KD (mol/L) was calculated from these values. […] Regarding such interactions, KD values were calculated using the following 1:1 binding model described in BIACORE® T100 Software Handbook BR1006-48 Edition AE.

[16] = molecular target: T3, cynomolgus monkey FcγRIIa2 …; test: as above
Experimental: as §3

[17] = molecular target: T5, human FcγRIIIaV extracellular domain, …; test: as above
Experimental: as §3

[18] = molecular target: T10, human FcγRIIIaV extracellular domain, His-tagged (human, UniProt P08637 17-208); test: SPR (BIACORE), antibody captured on chip, FcγR as analyte, 25 C; KD of SG1 divided by KD of the variant
T10 construct: also called human FcγRIIIa (V158 allotype); FcgRIIIaV; not shown: His-tag added to the C-terminus
Experimental: as §3
T10 sequence (P08637 17-208 F176V): as the sequence (P08637 17-208 F176V) above

[19] = molecular target: T11, cynomolgus monkey FcγRIIa1 extracellular domain with C-terminal His-tag (cynomolgus monkey); test: SPR (Biacore), antibody captured, FcgR as analyte
T11 construct: also called cyno FcgRIIa1; cynoFcγRIIa1
T11 chain: T3 chain with T95P, A121T, K127I, S128A, N130K, N135D, Q142R

[20] = molecular target: T11, cynomolgus monkey FcγRIIa1 …; test: SPR (Biacore), KD of SG1 divided by KD of variant
[21] = molecular target: T12, human FcγRIIb extracellular domain with C-terminal His-tag (human, UniProt P31994 43-217); test: SPR (Biacore), KD of SG1 divided by KD of variant
T12 construct: also called human FcgRIIb
T12 sequence: T6 sequence

[22] = molecular target: T13, cynomolgus monkey FcγRIIa3 extracellular domain with C-terminal His-tag (cynomolgus monkey); test: SPR (Biacore), KD of SG1 divided by KD of variant
T13 construct: also called cyno FcgRIIa3; cynoFcγRIIa3
T13 chain: T3 chain with K127I, N130K, H133P, Q142R

[23] = molecular target: T14, human FcγRIIaR extracellular domain with C-terminal His-tag (human, UniProt P12318 34-217); test: SPR (Biacore), KD of SG1 divided by KD of variant
T14 construct: also called human FcgRIIaR; FcγRIIa (type R)
T14 chain: T1 chain

[24] = molecular target: T15, human FcγRIIIaV extracellular domain with C-terminal His-tag (human, UniProt P08637 17-208); test: SPR (Biacore), KD of SG1 divided by KD of variant
T15 construct: also called human FcgRIIIaV

[25] = molecular target: T14, human FcγRIIaR extracellular domain …; test: SPR (Biacore), antibody captured, FcgR as analyte
[26] = molecular target: T16, human FcγRIIaH extracellular domain with C-terminal His-tag (human, UniProt P12318 34-217); test: SPR (Biacore), antibody captured, FcgR as analyte
T16 construct: also called human FcgRIIaH; FcγRIIa (type H)
T16 sequence: T1 chain with R134H

[27] = molecular target: T17, cynomolgus monkey FcγRIIIaS extracellular domain with C-terminal His-tag (cynomolgus monkey, UniProt Q8SPW2 21-206 at identity 1.00)); test: SPR (Biacore), KD of SG1 divided by KD of variant
T17 construct: also called cyno FcgRIIIaS; cynoFcγRIIIaS
T17 chain: T7 chain

T15 sequence (P08637 17-208 F176V): as the sequence (P08637 17-208 F176V) above

B1: MS1032LO06-SG1 (antibody, human IgG1, kappa)
heavy: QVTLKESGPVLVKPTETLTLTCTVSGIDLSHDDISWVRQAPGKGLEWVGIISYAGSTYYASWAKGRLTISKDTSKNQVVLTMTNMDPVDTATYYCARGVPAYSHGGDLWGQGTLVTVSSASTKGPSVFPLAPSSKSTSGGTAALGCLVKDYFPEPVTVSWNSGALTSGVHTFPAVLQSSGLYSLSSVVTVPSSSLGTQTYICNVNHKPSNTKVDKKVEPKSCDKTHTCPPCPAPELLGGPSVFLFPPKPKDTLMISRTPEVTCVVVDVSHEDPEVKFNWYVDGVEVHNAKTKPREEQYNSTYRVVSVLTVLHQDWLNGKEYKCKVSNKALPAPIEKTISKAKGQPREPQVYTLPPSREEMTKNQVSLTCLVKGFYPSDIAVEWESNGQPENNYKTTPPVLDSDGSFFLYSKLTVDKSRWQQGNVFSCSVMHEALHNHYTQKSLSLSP
light: DIVMTQSPATLSLSPGERATLSCTSSQSVYHANWLSWFQQKPGQPPKLLIYWASTLAYGVPSRFSGSGSGTDFTLTISSLQPEDAATYYCAGGYGGGRYAFGQGTKVEIKRTVAAPSVFIFPPSDEQLKSGTASVVCLLNNFYPREAKVQWKVDNALQSGNSQESVTEQDSKDSTYSLSSTLTLSKADYEKHKVYACEVTHQGLSSPVTKSFNRGEC
notes: Heavy constant region SG1, light constant region SK1; also called M103205H795-SG1
B1 was tested, and the “KD fold (SG1 = 1)” value [1] was 1, the “KD fold (SG1 = 1)” value [2] was 1 and the “KD fold (SG1 = 1)” value [3] was 1. The “KD fold (SG1 = 1)” value [4] was 1, the “KD fold (SG1 = 1)” value [5] was 1 and the “KD fold (SG1 = 1)” value [6] was 1. The “KD fold (SG1 = 1)” value [7] was 1, the “KD fold (SG1 = 1)” value [8] was 1 and the “KD fold (SG1 = 1)” value [9] was 1. For the same binder, the “Binding to cynoFcgRs (SG1 = 100)” value [10] was 100, the “Binding to cynoFcgRs (SG1 = 100)” value [11] was 100 and the “Binding to cynoFcgRs (SG1 = 100)” value [12] was 100. For the same binder, the “Binding to cynoFcgRs (SG1 = 100)” value [13] was 100, the “Binding to cynoFcgRs (SG1 = 100)” value [14] was 100 and the Kd [15] was 14000 nM. The Kd [16] was 52000 nM and the Kd [17] was 1200 nM.

B2: M103205H795-MY318/M103202L889-SK1 (antibody, human IgG1, kappa, name in EU numbering)
heavy: QVTLKESGPVLVKPTETLTLTCTVSGIDLSHDDISWVRQAPGKGLEWVGIISYAGSTYYASWAKGRLTISKDTSKNQVVLTMTNMDPVDTATYYCARGVPAYSHGGDLWGQGTLVTVSSASTKGPSVFPLAPSSKSTSGGTAALGCLVKDYFPEPVTVSWNSGALTSGVHTFPAVLQSSGLYSLSSVVTVPSSSLGTQTYICNVNHKPSNTKVDKKVEPKSCDKTHTCPPCPAPELLLGPSVFLFPPKPKDTLMISRTPEVTCVVVDVSEEDPEVKFNWYVDGVEVHNAKTKPREEQYNSTYRVVSVLTVLHQDWLNGKEYKCKVSNTALPKPIEKTISKAKGQPREPQVYTLPPSREEMTKNQVSLTCLVKGFYPSDIAVEWESNGQPENNYKTTPMVLDSDGSFFLYSKLTVDKSRWQQGNVFSCSVMHEALHNHYTQKSLSLSP
light: B1 light
notes: expressed with M103202L889-SK1 as light chain
In the case of B2, the “KD fold for humanFcgRs (SG1 = 1)” value [18] is reported as 0.09 fold.

B3: M103205H795-MY530 / M103202L889-SK1 (antibody, human IgG1, kappa, name in EU numbering)
heavy: B2 heavy with L238T, E270D, M398P
light: B1 light
B3 was tested, and the Kd [19] was 1300 nM, the “KD fold (SG1 = 1)” value [20] was 2.5 fold and the “KD fold (SG1 = 1)” value [21] was 2.9 fold.

B4: M103205H795-MY388 (second row so labelled: G236T/S239I/H268D/A330K) / M103202L889-SK1 (antibody, human IgG1, kappa, name in EU numbering)
heavy: B2 heavy with L238T, S241I, E270D, T328K, M398P
light: B1 light
notes: The label MY388 is printed for two different variants; also called MY388 (second of two rows with this label)
B4 was tested, and the “KD fold (SG1 = 1)” value [20] was 1.9 fold.

B5: M103205H795-MY520 / M103202L889-SK1 (antibody, human IgG1, kappa, name in EU numbering)
heavy: B2 heavy with P234D, L238T, S241V, E270D, Q297L, T328K, M398P
light: B1 light
For B5, the “KD fold (SG1 = 1)” value [22] was 8.1 fold, the “KD fold (SG1 = 1)” value [23] was 3.2 fold and the “KD fold (SG1 = 1)” value [24] was 0.23 fold. For the same binder, the “KD fold (SG1 = 1)” value [21] was 3.3 fold.

B6: M103205H795-MY528 / M103202L889-SK1 (antibody, human IgG1, kappa, name in EU numbering)
heavy: B2 heavy with L236W, L238T, E270D, T328K, M398P
light: B1 light
In the case of B6, the Kd [25] is reported as 560 nM, the Kd [26] is reported as 350 nM and the “KD fold (SG1 = 1)” value [27] is reported as 0.18 fold.
